The assay addresses CCR1 (human) (UniProt P32246). As to the kind of experiment: cell-based or functional assay.

CCR1 (human), sequence (P32246 whole entry): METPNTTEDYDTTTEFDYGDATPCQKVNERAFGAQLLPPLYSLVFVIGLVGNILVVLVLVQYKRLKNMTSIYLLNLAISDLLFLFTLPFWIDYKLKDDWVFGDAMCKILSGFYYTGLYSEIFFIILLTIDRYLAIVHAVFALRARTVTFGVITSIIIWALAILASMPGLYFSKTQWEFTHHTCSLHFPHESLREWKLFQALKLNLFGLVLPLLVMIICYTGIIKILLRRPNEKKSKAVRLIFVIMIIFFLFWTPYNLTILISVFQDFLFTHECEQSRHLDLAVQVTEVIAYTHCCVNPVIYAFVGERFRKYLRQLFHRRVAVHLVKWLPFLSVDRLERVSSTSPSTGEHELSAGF

As for “MPIF-1 wild type (mature MPIF-1 secreted from a baculovirus expression system) (from UniProt P55773 22-120) (ligand)”, the Ca2+ mobilization (ng/mL): minimum concentration required to mobilize calcium in human monocytes and/or THP-1 cells; MPIF-1/HG00300-B5 turned out to be 1000 ng/mL.

Values taken from patent US20030114379A1.
